The experiment addresses Native Trypsin (abcam). The experiment is described as follows: cell-based or functional assay.

B1: Trypsin 1/Trypsin 2-Dual-L4-Ab5 (antibody, part only; not given: light chain variable domain, V domains shown, part only)
VH: QVQLVQSGAEVKKPGASVKVSCKASGYTFTDYAISWVRQAPGQGLEWMGWISASTADTNYAQKLQGRVTMTTDTSTSTAYMELRSLRSDDTAVYYCARQDEVVGKMTYYIGTDVWGQGTTVTVSS
With B1, the IC50 Against 0.25 nM Native Trypsin worked out at 4.8 nM.

These data come from US20260274991A1.
